The series is described as follows: yeast display, Sf9 membrane polyspecificity reagent, FACS + sequencing; frameworks hold sequencing errors. The procedure, abridged:
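Sorting gates, low and high (top ~1%), were placed on anti-HA fluorescence to track expression and on streptavidin fluorescence to track reagent binding. A clone's polyreactivity label is taken from the gate it came out of. The reagent was 10% biotinylated, detergent-solubilized Sf9 membrane, applied for 1 hour at 4 °C to galactose-induced yeast display cells.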
As to “QVQLVESVGGLVQAGGSLRLSCAASGRIFTSYAMGWYRQAPGKERELVAAIRFNGDSTYYADSVKGSFTISRDNAKNTVYLQMNSLKPEDTAVYYCAASRYRGSFRYTEYYWGQGTQVTVSS”, the “polyreactivity (PSR sort gate)” value is “high polyreactivity”.

With “QVQLVESGGGLVQAGGSLRLSCAASGFTIRWYAMGWYRQAPGKERELVAAISSGGGSTYYADSVKGRFTISRDNAKNTVYLQMNSLKPEDTAVYYCNARIQYFEYRGYEYWGQGTQVTVSS”, the “polyreactivity (PSR sort gate)” value was “high polyreactivity”.

Regarding “QVQLVESGGGLVQAGGSLRLSCAASGRTFWYNAMGWYRQAPGKEREFVAAITSSGGSTYYADSVKGRFTISRDNAKHTVFLQMNSLKPEDTAVYYCNKRPGPYKWPPRHDYWGQGTQVTVSS”, the “polyreactivity (PSR sort gate)” value is given as “low polyreactivity”.

Turning to “QVQLVESGGGLVQAGGSLRISCAASGSIYWDNAMGWYRQAPGQESELVAAITSSGDTTYYADSVKGRFTISRDNAKNTVYLQMNSQKPEDTAVYYCAADYYTAYYVTLDYWGQGTQVTVSS”, the “polyreactivity (PSR sort gate)” value was “low polyreactivity”.

Turning to “QVQLVESGGVLVQAGGSLRLSCAASGRTFRYYVKGWYRRAPGKERELLASITSNGDSTYYADSVKGRFTISRDNAKNTVYLQMNSLKPEDTAVYYCAVRWRDYRGSYRGFEYWGQGTQVTVSS”, the “polyreactivity (PSR sort gate)” value is “high polyreactivity”.

As to “QVQLVESGGGLVQAGGSLRLICAASGSTFGFNAMGWSRQAPGKERELLPLLWSGGSTYYADSVKGRFTISRDNAKNTVYLQMNSLIPEDTAVYYCNKDSPPITRYDYWGQGTQVTVSS”, the “polyreactivity (PSR sort gate)” value is reported as “low polyreactivity”.

On to “QVQLVESGGGLVQAGGSLRLSCAASGITIDYYAMGWYRQAPGKERELVAAISSVGNTNYADSVKGRFTISRDNAKNTVYLQMNSLKPEDTAVYYCAARAYGQRLYRVWSGYGYWGQGTQVTVSS”, for which the “polyreactivity (PSR sort gate)” value is “high polyreactivity”.

For “QVQLVESGGCLVQAGGSLRLSCAASGFILSGNTMGWYRQAPGKERELVAGINDDSSTYYADSVKGGFTISRDNAKNTVYLQMNSLKPEDTAVYYCNAGQSWYPSWYYYWGQGTQVTVSS”, the “polyreactivity (PSR sort gate)” value is on record as “low polyreactivity”.

With “QDQLVDSRGGLVKAGGSLRLSCSASGRTFYYYAMGWSRQAPGQERELVADINTRVTSTYYADSVKGRFTISRDNAKNTVYLQMNSLKPEDTGVYYCAVDPYGDSWEDWLRNYYYGYDYWGQGTQVTVSS”, the “polyreactivity (PSR sort gate)” value is listed as “low polyreactivity”.

As to “QVQLVDSGGGLVQAGGSLRLSCAASGRTFGSYAMGWSRQAPGKERELVAAISSSGGRTYYADSVKGRFTISRDNAKNTVYLQLNSLKPEDTAVYYCNARWRFLYDYWGQGTQVTVSS”, the “polyreactivity (PSR sort gate)” value is listed as “high polyreactivity”.

In the case of “QVQLVESGGGLVQAGGSLRLSCAASGRTSPYYTMGWYRQAPGKERELVAASGSRTDYADSVKGRFTISRDNAKNTVYLQMNSLKPEDTAVYYCNAYRYRQSSSDKYGYWGQGTQVTVSS”, the “polyreactivity (PSR sort gate)” value is reported as “low polyreactivity”.

As for “QVQLVESGGGLVQAGGSLRLSCAASGSTFHNYAMGCYRQAPGKERELVAGISVRGGGTYYADSVKGRFTISRDNAKNTVYVQMNSLKPEDTAVYYCNARSWYYVWRKGYRHGDYWGQGTQVTVSS”, the “polyreactivity (PSR sort gate)” value is “high polyreactivity”.

Regarding “QVQLVESGGGLVQAGGSLRLSCAASGRILAWYAMGWYRQAPGKEREFVAGITGSVGSTYYADSVKGRFTISRDKAKNTVYLQMNSLKPEDPAVYYCNKDWDRTSGPKHYYWGQGTQVTVSS”, the “polyreactivity (PSR sort gate)” value is “low polyreactivity”.

With “QVQLVESGGGLVQAGGSLRLSCAASGRIFIWYTMGWYRQAPGNERELVASITGGGGSTYYADSVKGRFTISRDNAKNTVYFQMNSLKPEETAVYDCNAVYRRRYDYWGQGTQVTVSS”, the “polyreactivity (PSR sort gate)” value was “high polyreactivity”.

Take “QVQLVESGGGLVQAGGSLRLSCAASGIIIWYNTMGWYRQAPGKEREFVARISRRVGSTYYADSVKGRFTISRDNAKNTVYLQMNSLKPEDTAVYYCAASPYQVRYQWGNRLDYWGQGTQVTVSS”: the “polyreactivity (PSR sort gate)” value was “high polyreactivity”.

Consider “QVQLVESGGGLVQAGGSHRLSCAASGIIIEGNVMGWSRQSPGKQSELVAAITSDTSTNYGDSVKGRFTISRDNATNTVYLQMNSLKPEDTGVYYCNAVIGTDYFYSGTAEFYYWGQGTQVTVSS”, for which the “polyreactivity (PSR sort gate)” value is on record as “low polyreactivity”.

For “QVQLVESGGGLVQAGGSLRLSCASSGTTFQYYAMGSYRQAPGKERELVARISDSSANTYYADSVNGRFTISRDNAMNTVYLQMNSLKPEDTAVYYCAASVPYKFYCVVSVRYEYWGQGTQVTVSS”, the “polyreactivity (PSR sort gate)” value is “low polyreactivity”.

Turning to “QVQLVESGGGLVQAGGSLRLSCAASGGIFWYYAMGWYRQAPGKERELVAAINSGGSTYYADSVKGRFTISRDNAKNTVYLQMNSLNPEDTAVYYCNTRYPFSRYDYWGQGTQVTVSS”, the “polyreactivity (PSR sort gate)” value is “low polyreactivity”.

Regarding “QVQLVESGGGLVQAGGSLRLSCAASGFTFERYAMGSYRQAPGKERELVAAISSRGGGTYYADSVKGRFTISRENAKNTVFLQMNSLKPEDTAVYYCNRPYDYSYNYWGQGTQVTVSS”, the “polyreactivity (PSR sort gate)” value was “high polyreactivity”.

For the sequence “QVQLVESGGGLVQAGGSLRLSCAASGFIFEDYAMGWYRQAPGKERELVAAIRSNDDSTYYADSVKGRFTISRDNSKNTVYLHMNSLKPEDTAVYYCNKGLRRWSTRSHYYYWGQGTQVTVSS”, the “polyreactivity (PSR sort gate)” value is “high polyreactivity”.

In the case of “QDQLVESGGGLVQAGGSLRLSCAASGIIYLTYAMGRYRQEPGKERELVATITSGGRTIYADSVKGRFTISLDNAKNTVYLQMNRLKPVDTAVYYCNALRYYHYDYWGQGTQVTVSS”, the “polyreactivity (PSR sort gate)” value is given as “high polyreactivity”.

Turning to “QVQLVESGGGIVQAGGSLRLRCAASGSIISVYAMGWYRQAPGKERELLDGITISGGRTYYADSVKGRFTISRDYAKNTVYLQMNSMKPEDTAVYYCAADWVYPPGLNDSVHFGEYDYWGQGSQVTVSS”, the “polyreactivity (PSR sort gate)” value was “low polyreactivity”.

Consider “QVQLVESGGGLVQAGGSLRLSCAASGSIFFENDMGWYRQAPGKEREFVAAISLSSASTYYADSVKGRFTISRDNAKNTVYLQMNSLKPEDTAVYYCAADAIFGWPTFDYWGQGTQVTVSS”, for which the “polyreactivity (PSR sort gate)” value was “low polyreactivity”.

As for “QVQLVESGGGLVQAGGSLRLSCAASGRIFTVYAMGWYRQAPGKERELVAAISRGGSTYADSVKGRFTISRDNAKNTVYLQMNSLKPEDTAVYYCAAVNFRKGEDYWGQGTQVTVSS”, the “polyreactivity (PSR sort gate)” value is listed as “high polyreactivity”.

Consider “QVQLVESGGGLVQAGGSLRLSCAASGSIFSIYAMGWYRQAPGTERELVASINSGDSTYYADSVKGRFTISRDNAKNTVYVQMNSLKPDDTAVYNCAATLVTVPLYRFDYWGQGTQVTVSS”, for which the “polyreactivity (PSR sort gate)” value is given as “low polyreactivity”.

As to “QVQLVESGGGLVQARGSLRLSCAASGRILYSYAMGWYRQAPGKERELVASISLSGGRTYADSVKGRFTISRDNAKNTVYLQMNSLKPEDTAVYYCNDRIRTSRYLWPFDYWGQGTQVTVSS”, the “polyreactivity (PSR sort gate)” value is recorded as “high polyreactivity”.

For the sequence “QVQLVESGGGLVQAGGSLRLSCAASGRIFTYYVMGWYRQAPWKERELVAAISYGGGSTYYADSVKGRFTISRDNAKNTVYLQMNSLKPEDTAGYYCAAEDGYRKMDYWGQGTQVTVSS”, the “polyreactivity (PSR sort gate)” value is on record as “low polyreactivity”.

As for “QVQLVESGGGLVQAGGSLRLSCAASGSTFSSYAMGWYRQAPGKERELVAAITSRGSRTFYADSVKGRFTISRDNAKNTVYLQMNSLKPEDTAVYYCAAYFRIGTFGQYDYWGQGTQVTVSS”, the “polyreactivity (PSR sort gate)” value is “high polyreactivity”.

On to “QVQLVDSGGGLVQAGGSLRLSCAASGSTFTRNVMGWYRQAPGKERELVASISRSGGRTYYADSVKGRFTISRDNAMNTVYLQMNSMKPDDTAVYYCAAKYFYYLDPYDYWGQGTHVTVSS”, for which the “polyreactivity (PSR sort gate)” value is on record as “high polyreactivity”.

On to “QVQLVESGGGLVQAGGSLRLSCAASGFTFGGNVMGWYSQAPGKERELVAAISGAGSKYYADSVKGRFTISRDNAKNTVNLQMNSLKPEDTAVNYCAADDVARYLSGYDYWGQGTQVTVSS”, for which the “polyreactivity (PSR sort gate)” value is “low polyreactivity”.

Take “QVQLVESGGGLVQAGGSLRLSCAASGRIFDTNVMGWYRQAPGTDRDFVAAIRWNGGSTNYADSVKGRFTISRDNSKNTVYLQMNSLKPEDTAVYYCAADGYIGWRHIYEYWGQATQVTVSS”: the “polyreactivity (PSR sort gate)” value is on record as “low polyreactivity”.

On to “QVQLVESGGGLVQAGGSLRLSCAASGRIFYYYDMGWYRQAPGNERELVAGINDDSSTYYADSVKGRFTISRDNAKNTVYLQMNSLKPEDTAVYYCNAGPSWYPCWYYYWGQGTQVTVSS”, for which the “polyreactivity (PSR sort gate)” value was “low polyreactivity”.

With “QVQLVESGGGLVQAGGSLRLSCAASGRIFTHNAMGWYRQAHGKERELVAAISYSGVSTYYADSVKGRFTISRDNAKNTVYLQMNSLIPEDTAVYYCARRYWYPDAFYRYDYWGQGTQGTVSS”, the “polyreactivity (PSR sort gate)” value was “low polyreactivity”.

Consider “QVQLVESGGGLVQAGGSLRLSCAASGRTFWVYAMGWYRQAPGKERELVAAIRRGGITNYADSVKGRFTISRDNAKNTVYLQMNSLKPEDTAVYYCATDNYGYLTRYYYWGQGTQVTVSS”, for which the “polyreactivity (PSR sort gate)” value was “low polyreactivity”.

Consider “QVQLVESGGGLVQAGGSLRLSCAASGITFGPYAIGWYRQAPGKERELVAAISAGGGSTYYADSVKGRFTISRDNAKNSVYLQMNSLKPEDTAVYYCAAYLLHHYGGPEYYYWGQGTQVTVSS”, for which the “polyreactivity (PSR sort gate)” value was “high polyreactivity”.

As to “QDQLVESGGGLDQARGSLRLICAASGSTFKYYAMPSYRQAPGKERELVAAISWSGGNTYYADSVKGRFTISRENAKNTDYLQMNCLKPEDTAVYYCAADTKVGNGIKFDYWGQGTHVTVSS”, the “polyreactivity (PSR sort gate)” value is “high polyreactivity”.

On to “QVQLVESGGGLVQAGGSLRLRGAASGGILVGYAMGWYRQAPGKERELVAAINYSGGSTNYADSVKGRFTISRDNAKNTVYLQMNSLKPEDTAVYYCAARSTARYGYWGQGTQVTVSS”, for which the “polyreactivity (PSR sort gate)” value is “low polyreactivity”.

Consider “QVQLEESGGGLVQAGGSLRLSCAASGFTFSHNAMGWYIQAPGKERELVAAITRDSGSTYYADSVKGRFTISRDNAKNTVYLQMNSLTPEDTAVYYCAADIASGYYWYDYWGQGTQVTVSS”, for which the “polyreactivity (PSR sort gate)” value was “low polyreactivity”.

As for “QVQLVESGGGLVQAGGSLRLSCAASGRIFEPYAMGWYRQAPGKERELFAAITSGGSTDYADSVKGRFTISRDNAKNTVYLQMNSLKPEDTAVYYCAARVTYGGIPARQIYDYWGQGTQVTVSS”, the “polyreactivity (PSR sort gate)” value is “low polyreactivity”.

Turning to “QVQLVESGGGLVQAGGSLRLSCAASGSTFGAYAMGWYRQAPGKEREFVAAISGGGDGTYADSVKGRFTISRDNAKNTVYLQMNSLKPEDTAVYYCAAEDVPYDREDYWGQGTQVTVSS”, the “polyreactivity (PSR sort gate)” value is given as “low polyreactivity”.

As to “QVQLVESGGGLVQAGGSLRLSCAASGSTFAFNAMGWYRQAPGKERELVASISGSGSSTYYADSVKGRFTISRDNAKNTVYLQMNSMKPEVTAVYYCDARVGARVSPPRRHGRFNYWGQGTQVTVSS”, the “polyreactivity (PSR sort gate)” value is “high polyreactivity”.

Values taken from the nanobody polyreactivity screen of Harvey et al. (2022).
